Where “and” joins values, the source holds several entries; their conditions need not be identical. Equal values may be shown once.
Experiments:
[1] = biological target: IGF-1R on SW480 cells (UniProt P08069 31-1367, limits assumed); experiment: cell-based or functional assay
[2] = biological target: T1, IGF-1R on MCF-7 cells (MCF-7S8, MCF7) (human, UniProt P08069 31-1367); experiment: cell-based or functional assay
[3] = biological target: Human IGF-1R (HIGF-1R), purified from BHK cells stably transfected with IGF-1R cDNA (human, UniProt P08069 31-1367); experiment: cell-based or functional assay
Target sequence in this assay (P08069 31-1367 limits assumed): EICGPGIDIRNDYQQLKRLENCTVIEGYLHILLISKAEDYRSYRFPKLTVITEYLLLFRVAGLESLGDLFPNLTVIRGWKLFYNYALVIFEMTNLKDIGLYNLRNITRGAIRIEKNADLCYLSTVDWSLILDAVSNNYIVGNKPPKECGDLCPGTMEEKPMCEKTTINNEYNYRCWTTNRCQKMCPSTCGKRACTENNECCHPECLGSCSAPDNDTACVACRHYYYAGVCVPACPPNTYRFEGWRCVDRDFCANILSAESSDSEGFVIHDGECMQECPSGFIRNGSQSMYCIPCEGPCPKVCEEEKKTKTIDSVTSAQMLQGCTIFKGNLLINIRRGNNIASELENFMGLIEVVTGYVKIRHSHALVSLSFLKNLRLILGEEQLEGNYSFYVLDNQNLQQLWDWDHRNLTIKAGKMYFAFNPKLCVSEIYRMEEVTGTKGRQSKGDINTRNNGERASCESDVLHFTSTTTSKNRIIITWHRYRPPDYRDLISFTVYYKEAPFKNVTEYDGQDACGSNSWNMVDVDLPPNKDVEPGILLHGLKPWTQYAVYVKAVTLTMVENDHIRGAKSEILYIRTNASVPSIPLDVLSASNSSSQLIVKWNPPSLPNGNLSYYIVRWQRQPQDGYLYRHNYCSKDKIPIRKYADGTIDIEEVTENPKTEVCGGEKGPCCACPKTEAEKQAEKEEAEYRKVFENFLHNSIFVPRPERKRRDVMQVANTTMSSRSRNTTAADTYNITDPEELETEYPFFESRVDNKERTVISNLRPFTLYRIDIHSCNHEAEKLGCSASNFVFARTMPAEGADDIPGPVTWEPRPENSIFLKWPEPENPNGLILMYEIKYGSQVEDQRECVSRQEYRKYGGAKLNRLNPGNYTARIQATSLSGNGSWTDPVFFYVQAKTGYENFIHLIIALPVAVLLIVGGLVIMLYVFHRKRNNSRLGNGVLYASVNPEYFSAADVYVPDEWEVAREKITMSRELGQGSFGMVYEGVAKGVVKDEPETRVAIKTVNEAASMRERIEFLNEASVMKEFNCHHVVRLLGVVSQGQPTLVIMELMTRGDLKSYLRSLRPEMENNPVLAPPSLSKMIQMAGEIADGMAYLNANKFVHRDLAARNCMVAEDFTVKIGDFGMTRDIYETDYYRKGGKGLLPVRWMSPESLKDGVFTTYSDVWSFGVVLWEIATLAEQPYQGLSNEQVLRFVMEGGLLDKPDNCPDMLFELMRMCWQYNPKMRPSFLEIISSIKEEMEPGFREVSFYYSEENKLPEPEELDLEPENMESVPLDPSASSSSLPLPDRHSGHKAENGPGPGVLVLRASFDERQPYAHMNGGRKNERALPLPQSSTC

[4] = biological target: IGF-1R on L6 cells; experiment: cell-based or functional assay
[5] = biological target: T2, His-tagged soluble recombinant human IGF-IR (srhIGF-1R-his; R&D systems) (human, UniProt P08069 31-935); experiment: AlphaScreen competition with biotinylated hIGF-1 on srhIGF-1R-his
T2 construct: extracellular domain; Bought protein; also called extra-cellular domain of IGF-1R; not shown: His tag
T2 sequence (P08069 31-935): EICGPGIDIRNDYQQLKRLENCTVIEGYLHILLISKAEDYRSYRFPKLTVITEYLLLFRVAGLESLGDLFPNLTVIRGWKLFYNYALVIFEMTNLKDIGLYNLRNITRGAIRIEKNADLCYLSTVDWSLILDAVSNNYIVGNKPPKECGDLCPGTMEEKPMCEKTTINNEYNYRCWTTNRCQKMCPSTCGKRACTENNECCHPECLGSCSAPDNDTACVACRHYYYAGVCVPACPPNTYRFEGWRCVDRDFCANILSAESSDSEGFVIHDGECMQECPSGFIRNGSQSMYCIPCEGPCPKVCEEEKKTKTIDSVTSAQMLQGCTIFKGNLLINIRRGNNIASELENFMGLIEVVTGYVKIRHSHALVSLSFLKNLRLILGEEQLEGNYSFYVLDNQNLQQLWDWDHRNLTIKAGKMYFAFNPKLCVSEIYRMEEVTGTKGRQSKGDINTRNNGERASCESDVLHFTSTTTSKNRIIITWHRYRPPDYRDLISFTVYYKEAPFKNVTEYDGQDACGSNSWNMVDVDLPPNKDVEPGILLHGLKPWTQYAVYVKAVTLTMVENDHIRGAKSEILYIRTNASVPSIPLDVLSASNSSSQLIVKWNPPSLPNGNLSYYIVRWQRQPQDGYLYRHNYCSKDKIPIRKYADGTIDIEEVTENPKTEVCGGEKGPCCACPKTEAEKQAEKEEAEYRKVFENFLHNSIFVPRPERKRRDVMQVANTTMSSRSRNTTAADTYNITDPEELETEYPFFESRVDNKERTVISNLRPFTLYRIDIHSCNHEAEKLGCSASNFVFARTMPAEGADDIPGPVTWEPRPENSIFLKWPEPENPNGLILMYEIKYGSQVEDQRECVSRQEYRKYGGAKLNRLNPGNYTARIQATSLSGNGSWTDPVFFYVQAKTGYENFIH
Protocol: Binding Assays. […] Detection of the receptor ligand interaction was measured in an amplified luminescent proximity homogeneous assay (ALPHAScreen; BioSignal-Packard, Montreal). The assay was performed in 384-well Nunc™ white polystyrene microplates (Nalge Nunc International, Naperville, Ill.) with a final volume of 40 μL. […] Each concentration of competitor was assayed in duplicate. […] The second step of the assay was to add acceptor beads and the incubation continued for 0.5 hr. The final step was to add donor beads and the incubation continued for an additional 1 hr. […] Primary data were background corrected, normalized to buffer controls and then expressed as % Specific Binding. The data were fit to a four-parameter non-linear regression analysis (y=min+(max-min)/(1+10̂((log IC₅₀-x)*Hillslope))), which was used to determine IC₅₀ values. The Z′-factor for this assay is greater than 0.7 (Z′=1-(3σ++3σ−)/|μ+−μ−|) and the signal-to-background (SB) ratio was between 40 and 70.

[6] = biological target: T1, IGF-1R on MCF-7 cells (MCF-7S8, MCF7); experiment: cell-based or functional assay; remark: listed apart in the source
[7] = biological target: Human IGF-1R (HIGF-1R), purified from BHK cells stably transfected with IGF-1R cDNA (human, UniProt P08069 31-1367); experiment: cell-based or functional assay; remark: listed apart in the source
Target sequence in this assay (P08069 31-1367 limits assumed): as the sequence (P08069 31-1367 limits assumed) above

T1 sequence (P08069 31-1367): as the sequence (P08069 31-1367 limits assumed) above
Sequence of IGF-1R on SW480 cells (P08069 31-1367 limits assumed): as above

B1: F293 (peptide)
peptide: SFYSCLESLVQGPAEKSRGQWEGCRK
IC50 in SW480 (M), peptide alone [1]: 1e-07 M | IC50 in MCF-7S8, in presence of IGF-1 [2]: 10000 nM | IC50 in MCF-7S8, peptide alone [2]: > 10000 nM | IC50 in kinase assay (M), IGF-1R kinase activation by 10 nM IGF-1 [3]: 1e-07 M | IC50, down regulation of 3 nM IGF-1 stimulation to basal level, IGF-IR, L6 cells [4]: 500 nM | IC50, down regulation of 3 nM IGF-1 stimulation to basal level, IRS-1, L6 cells [4]: > 1000 nM | IC50, down regulation of 3 nM IGF-1 stimulation to basal level, MAPK42, L6 cells [4]: 1000 nM | IC50, down regulation of 3 nM IGF-1 stimulation to basal level, MAPK44, L6 cells [4]: 500 nM | IC50, down regulation of 3 nM IGF-1 stimulation to basal level, PKB/Akt, L6 cells [4]: > 1000 nM | IC50 [5]: 9 nM

B2: F441 (peptide)
peptide: SFYDCLLDLSIGGPSSDWRRRCITA
MCF7 IC50 [6]: 240 nM and 180 nM

B3: F259 (peptide)
peptide: SFYSCLESLVAGPAEKSRGQWEGCRK
IC50, IGF-1R kinase activation by IGF-1 [7]: 200 nM and 300 nM

B4: RP6 (peptide)
peptide: TFYSCLASLLTGTPQPNRGPWERCR
IC50 [5]: 2700 nM

Source: patent US20110039779A1 (published 2011)
